Test [1] has as its target T1, ActRIIA and ActRIIB (on TGFB/SMAD SBE Reporter HEK293 cells) (human).
The target of test [2] is T1, ActRIIA and ActRIIB (on TGFB/SMAD SBE …). The source holds these as a separate data set.
Test [3] shares this target. The experiment in a line: cell-based or functional assay.
Test [4] has the same target. Description: cell-based or functional assay. The source holds these as a separate data set.
For test [5] the target is unchanged. The experiment in a line: cell-based or functional assay. The source holds these as a separate data set.
Test [6] has the same target. The experiment in a line: cell-based or functional assay. The source holds these as a separate data set.
For test [7] the target is unchanged. Description: cell-based or functional assay. The source holds these as a separate data set.
In test [8] the target is T2, human ActRIIA (human, UniProt P27037 20-135, limits assumed).
T2 construct: antigen in MSD-SET; also called ACVR2A; ActR2A
T2 sequence (P27037 20-135 limits assumed): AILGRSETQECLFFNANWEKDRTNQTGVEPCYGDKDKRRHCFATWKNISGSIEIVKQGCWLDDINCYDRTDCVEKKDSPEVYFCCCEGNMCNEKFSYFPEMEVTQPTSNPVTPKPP
The experiment in a line: MSD-SET.

The target in test [9] is T3, human ActRIIB (human, UniProt Q13705 19-137, limits assumed).
T3 construct: antigen in MSD-SET; also called ACVR2B; ActR2B
T3 sequence: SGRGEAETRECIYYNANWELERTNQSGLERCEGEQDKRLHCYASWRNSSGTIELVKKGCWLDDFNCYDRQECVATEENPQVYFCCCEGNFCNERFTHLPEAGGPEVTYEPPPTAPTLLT
Description: MSD-SET.

Test [10] has as its target T2, human ActRIIA. The experiment in a line: MSD-SET. This is another data set of the same source.
Test [11] addresses T3, human ActRIIB. Description: MSD-SET. The source holds these as a separate data set.
For test [12], the target named is T2, human ActRIIA. The experiment in a line: MSD-SET. The source holds these as a separate data set.
In test [13] the target is T2, human ActRIIA. Description: MSD-SET. The source holds these as a separate data set.
Test [14] deals with T2, human ActRIIA. The experiment in a line: MSD-SET. The source holds these as a separate data set.
Test [15] has as its target T3, human ActRIIB. The experiment in a line: MSD-SET. The source holds these as a separate data set.
Test [16] concerns the target T2, human ActRIIA. Description: MSD-SET, preliminary.
In test [17] the target is T3, human ActRIIB. Description: MSD-SET, preliminary.

Read-outs that look alike come from different tables or passages of the source.

B1: Bimagrumab (antibody, V domains shown)
VH: QVQLVQSGAEVKKPGASVKVSCKASGYTFTSSYINWVRQAPGQGLEWMGTINPVSGSTSYAQKFQGRVTMTRDTSISTAYMELSRLRSDDTAVYYCARGGWFDYWGQGTLVTVSS
VL: QSALTQPASVSGSPGQSITISCTGTSSDVGSYNYVNWYQQHPGKAPKLMIYGVSKRPSGVSNRFSGSKSGNTASLTISGLQAEDEADYYCGTFAGGSYYGVFGGGTKLTVL
Consider B1, for which the IC50 (read off the curve); Activin-stimulated SMAD reporter gene assay in test [1] was 0.3 nM. Besides, the IC50 (read off the curve); Myostatin-stimulated SMAD reporter gene assay in test [2] came out at 0.4 nM. In test [3], this molecule gave an IC50, Myostatin SMAD RGA of 0.56 nM; an IC50, myostatin inhibition (SMAD RGA) of 0.292 nM; an IC50 [nM] (assay not given) of 0.517 nM; an IC90, Activin SMAD RGA of 9.38 nM. In addition, in test [3], the IC90, Myostatin SMAD RGA turned out to be 13.5 nM; the IC90 [nM] (assay not given) was found to be 8.07 nM; the IC95, Activin SMAD RGA amounted to 37.9 nM; the IC95, Myostatin SMAD RGA turned out to be 55.2 nM. In addition, in test [3], the IC99, Activin SMAD RGA was found to be 829 nM and the IC99, Myostatin SMAD RGA worked out at 2680 nM. In test [4], this molecule returned an IC50 [nM] (assay not given) of 0.294 nM and an IC90 [nM] (assay not given) of 6.57 nM. This molecule registered an IC50, Activin SMAD RGA in [5] of 0.5 nM. In [6], the IC50, Activin SMAD RGA is 0.32 nM; the IC95, Activin SMAD RGA is 19.6 nM; the IC99, Activin SMAD RGA was 206 nM. Further, in [7], the IC50, Myostatin SMAD RGA came to 0.292 nM.

B2: Antibody Fasnetsküchla (antibody, V domains shown)
VH: QVQLVQSGAEVKKPGASVKVSCKASGYTFTSSYINWVRQAPGQGLEWMGTINAVSGSTSYAQKFQGRVTMTRDTSISTAYMELSRLRSDDTAVYYCARGGWFDYWGQGTLVTVSS
VL: QSALTQPASVSGSPGQSITISCTGTSSDVGSANYVNWYQQHPGKAPKPMIYGVSRRPSGVSNRFSGSKSGNTASLTISGLQAEDEADYYCGTFAGGKYYGVFGGGTKLTVL
notes: full-length IgG
Turning to B2, the Kd with human ActRIIA [8] stood at 0.029 nM; with human ActRIIB [9], 0.008 nM; in the test with human ActRIIA [10] it was 0.029 nM; in the test with human ActRIIB [11], 0.008 nM. In addition, the IC50 (read off the curve); Activin-stimulated SMAD reporter gene assay in [1] turned out to be 0.3 nM. The same molecule displayed an IC50 (read off the curve); Myostatin-stimulated SMAD reporter gene assay in [2] of 0.7 nM. The IC50, Activin SMAD RGA in test [3] is 0.347 nM; in test [5], 0.43 nM. For the same molecule, the figures for the IC50, Myostatin SMAD RGA in test [3] and in test [5] were 0.513 nM and 0.48 nM, respectively. In test [3], this molecule gave an IC90, Activin SMAD RGA of 3.82 nM. In [3], this molecule registered an IC90, Myostatin SMAD RGA of 4.63 nM.

B3: Antibody Bäratatza (antibody, V domains shown)
VH: QVQLVQSGAEVKKPGASVKVSCKASGYTFTSSYINWVRQAPGQGLEWMGTINAVSGSTSYAQKFQGRVTMTRDTSISTAYMELSRLRSDDTAVYYCARSGWFDYWGQGTLVTVSS
VL: QSALTQPASVSGSPGQSITISCTGTSSDVGSYNYVNWYQQHPGKAPKLMIYGVSKQQSGVSNRFSGSKSGNTASLTISGLQAEDEADYYCGTFAGGSYYGVFGGGTKLTVL
notes: full-length IgG
Regarding B3, in the test with human ActRIIA [12], the “Fold Difference to bimagrumab” value came to 49.5 fold and the dissociation constant Kd worked out at 0.023 nM. This molecule also returned a dissociation constant Kd with human ActRIIA [8] of 0.023 nM. The molecule further came in with an equilibrium dissociation constant (Kd) with human ActRIIB [9] of 0.005 nM. For the same molecule, in test [3], the IC50, Activin SMAD RGA stood at 0.138 nM; the IC50, Myostatin SMAD RGA was 0.0537 nM; the IC90, Activin SMAD RGA came out at 2.14 nM; the IC90, Myostatin SMAD RGA worked out at 0.491 nM. For the same molecule, in test [4], the IC50 [nM] (assay not given) is 0.105 nM, the IC50 fold difference to bimagrumab (assay not given) came out at 2.8 fold, the IC90 [nM] (assay not given) stood at 2.77 nM and the IC90 fold difference to bimagrumab (assay not given) was determined as 2.4 fold.

B4: Antibody Biiramooscht (antibody, V domains shown)
VH: QVQLVQSGAEVKKPGASVKVSCKASGYTFTSSYINWVRQAPGQGLEWMGTINPVSGSTSYAQKFQGRVTMTRDTSISTAYMELSRLRSDDTAVYYCARGGWFDYWGQGTLVTVSS
VL: QSALTQPASVSGSPGQSITISCTGTSSDVGSYNYVNWYQQHPGKAPKLMIYGVSKRESGVSNRFSGSKSGNTASLTISGLQAEDEADYYCGTFAGGAYYGVFGGGTKLTVL
notes: full-length IgG
Take B4: in the test with human ActRIIA [13], the “Fold Difference to bimagrumab” value was found to be 6.4 fold and binding was put at a Kd of 0.028 nM. The equilibrium dissociation constant (Kd) with human ActRIIA [8] amounted to 0.028 nM. The Kd with human ActRIIB [9] is 0.005 nM. In the test with human ActRIIA [10], this molecule registered a dissociation constant (Kd) of 0.028 nM. Moreover, binding in the test with human ActRIIB [11] was characterised by a dissociation constant (Kd) of 0.005 nM. In test [3], this molecule showed an IC50, Activin SMAD RGA of 0.161 nM; an IC50, Myostatin SMAD RGA of 0.222 nM; an IC50 [nM] (assay not given) of 0.086 nM; an IC50 fold difference to bimagrumab (assay not given) of 6.02 fold. In test [3], this molecule registered an IC90, Activin SMAD RGA of 1.58 nM; an IC90, Myostatin SMAD RGA of 2.78 nM; an IC90 [nM] (assay not given) of 1.16 nM; an IC90 fold difference to bimagrumab (assay not given) of 6.98 fold. In test [5], the IC50, Activin SMAD RGA came out at 0.21 nM and the IC50, Myostatin SMAD RGA came to 0.27 nM.

B5: Bäradreck Fab (Fab, V domains shown)
VH: QVQLVQSGAEVKKPGSSVKVSCKASGYTFTSSYINWVRQAPGQGLEWMGTINPVSGSTSYAQKFQGRVTITADTSTSTAYMELSSLRSEDTAVYYCARGGWFDYWGQGTLVTVSS
VL: QSALTQPRSVSGSPGQSVTISCTGTSSDVGSYNYVNWYQQHPGKAPKLMIYGVSKRPSGVPDRFSGSKSGNTASLTISGLQAEDEADYYCGTFAGGSYYGVFGGGTKLTVL
notes: Fab
On to B5, for which the dissociation constant Kd in the test with human ActRIIA [14] came out at 0.655 nM; with human ActRIIB [15], 0.0014 nM; with human ActRIIA [16], 0.655 nM; in the test with human ActRIIB [17] it was 0.0563 nM.

B6: Antibody Bäradreck (antibody, V domains shown)
VH: QVQLVQSGAEVKKPGSSVKVSCKASGYTFTSSYINWVRQAPGQGLEWMGTINPVSGSTSYAQKFQGRVTITADTSTSTAYMELSSLRSEDTAVYYCARGGWFDYWGQGTLVTVSS
VL: QSALTQPRSVSGSPGQSVTISCTGTSSDVGSYNYVNWYQQHPGKAPKLMIYGVSKRPSGVPDRFSGSKSGNTASLTISGLQAEDEADYYCGTFAGGSYYGVFGGGTKLTVL
notes: full-length IgG
Regarding B6, in the test with human ActRIIA [14], binding was characterised by a dissociation constant (Kd) of 0.112 nM. Also, the dissociation constant Kd in the test with human ActRIIB [15] was 0.0638 nM. For the same molecule, in the test with human ActRIIA [16], the affinity, expressed as Kd, was 0.112 nM. Besides, binding with human ActRIIB [17] was put at a Kd of 0.0638 nM. In test [3], this molecule showed an IC50, Activin SMAD RGA of 0.257 nM; an IC50, Myostatin SMAD RGA of 0.255 nM; an IC50, myostatin inhibition (SMAD RGA) of 0.255 nM; an IC90, Activin SMAD RGA of 4.99 nM. Further, the IC90, Myostatin SMAD RGA in test [3] worked out at 4.05 nM.

B7: Bebballesgmias Fab (Fab, V domains shown)
VH: QVQLVQSGAEVKKPGSSVKVSCKASGYKFTSSYINWVRQAPGQGLEWMGTINPVSGSTSYAQKFQGRVTITADTSTSTAYMELSSLRSEDTAVYYCARGGWFDYWGQGTLVTVSS
VL: QSALTQPRSVSGSPGQSVTISCTGTSSDVGSYNYVNWYQQHPGKAPKLMIYGVSKRPRGVPDRFSGSKSGNTASLTISGLQAEDEADYYCGTFAGGSYYGVFGGGTKLTVL
notes: Fab
On to B7, for which the figures for the dissociation constant (Kd) with human ActRIIA [14], with human ActRIIA [16] and in the test with human ActRIIB [17] were 0.285 nM, 0.285 nM and 0.0251 nM, respectively.

Broadly, the Kd is a measure of binding affinity in units of concentration. A higher Kd goes with weaker binding.

Values taken from patent publication US20250243286A1 (SIXPEAKS BIO, published 2025).
